According to US20030219848A1 (DISCOVERX, published 2003):

Target: enzyme acceptor (EA) fragment of β-galactosidase (UniProt P00722 2-1024 = β-galactosidase, limits assumed)
Assay: cell-based or functional assay

Sequence of enzyme acceptor (EA) fragment of β-galactosidase (P00722 other isoform, or with tags, fused parts or gaps limits assumed): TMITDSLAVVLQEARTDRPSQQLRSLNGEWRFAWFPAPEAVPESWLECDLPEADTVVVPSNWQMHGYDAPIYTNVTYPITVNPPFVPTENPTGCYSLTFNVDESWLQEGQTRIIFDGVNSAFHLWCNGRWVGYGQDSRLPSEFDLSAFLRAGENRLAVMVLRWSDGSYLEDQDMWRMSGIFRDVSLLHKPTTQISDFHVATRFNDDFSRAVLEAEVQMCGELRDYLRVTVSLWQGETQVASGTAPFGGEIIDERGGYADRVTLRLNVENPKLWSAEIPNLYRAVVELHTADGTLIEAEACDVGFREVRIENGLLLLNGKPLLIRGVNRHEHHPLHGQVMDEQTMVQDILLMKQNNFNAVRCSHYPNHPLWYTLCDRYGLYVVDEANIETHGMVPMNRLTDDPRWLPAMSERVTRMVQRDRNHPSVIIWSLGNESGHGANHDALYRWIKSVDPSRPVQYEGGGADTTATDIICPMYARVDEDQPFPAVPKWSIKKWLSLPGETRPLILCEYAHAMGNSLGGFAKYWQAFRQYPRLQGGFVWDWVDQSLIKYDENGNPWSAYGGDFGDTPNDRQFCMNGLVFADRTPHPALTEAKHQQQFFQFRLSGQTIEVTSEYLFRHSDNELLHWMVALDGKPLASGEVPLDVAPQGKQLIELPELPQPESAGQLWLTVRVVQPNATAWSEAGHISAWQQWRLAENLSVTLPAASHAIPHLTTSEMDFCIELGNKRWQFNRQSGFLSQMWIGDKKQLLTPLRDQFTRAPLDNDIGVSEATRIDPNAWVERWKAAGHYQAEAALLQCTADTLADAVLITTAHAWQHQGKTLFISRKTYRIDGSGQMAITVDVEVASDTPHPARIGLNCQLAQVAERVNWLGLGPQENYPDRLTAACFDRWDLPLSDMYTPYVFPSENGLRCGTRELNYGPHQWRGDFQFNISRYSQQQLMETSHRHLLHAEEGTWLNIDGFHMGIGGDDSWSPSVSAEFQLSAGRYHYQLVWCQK

Row | Binder | complementation activity relative to native 90 mer ED 28 (SEQ ID 17), at the same concentration (0.0123 nM) [%] | complementation activity (β-galactosidase activity after ED + EA incubation) relative to native 90 mer ED 28 (SEQ ID 17), ED 0.0123 nM, 60 min [%]
1 | SLAVVLQRRDWENPGVTQLNKLAAHPPFASWRNSEEARTDCPSQQL [46 mer ED (SEQ ID NO 10)] | 72 | –
2 | SLAVVLQRRDWENPGVTQLNRLAAHPPFASWRNSEEA [37 mer ED (SEQ ID NO 1), short enzyme donor fragment of β-galactosidase] | – | 45
